For test [1], the target named is Arabidopsis thaliana legumain isoform β, activated (AtLEGβ) (Arabidopsis thaliana) (UniProt Q39044). The test can be described thus: enzyme inhibition kinetics (Ki, Morrison equation); turnover of 50 μM Z-Ala-Ala-Asn-AMC by 50 nM legumain, 25°C, 20 mM citric acid pH 5.5, 100 mM NaCl, 0.02% Tween 20, 2 mM DTT; inhibitor in 1:2 serial dilutions from 15-fold the enzyme concentration, quadruplicates.

Test [2] has as its target Arabidopsis thaliana legumain isoform γ, activated (AtLEGγ) (Arabidopsis thaliana) (UniProt Q39119). The test is described as above.
Test [3] addresses human legumain, activated (hLEG) (human) (UniProt Q99538). Described as above.
Test [4] deals with Arabidopsis thaliana legumain isoform β, activated (AtLEGβ) (Arabidopsis thaliana) (UniProt Q39044).
The target in test [5] is T1, Papain from Carica papaya (Carica papaya, UniProt P00784 134-345).
T1 construct: papain of Carica papaya, used as a model of the papain-like cysteine proteases; source: bought: Merck
T1 sequence (looked up): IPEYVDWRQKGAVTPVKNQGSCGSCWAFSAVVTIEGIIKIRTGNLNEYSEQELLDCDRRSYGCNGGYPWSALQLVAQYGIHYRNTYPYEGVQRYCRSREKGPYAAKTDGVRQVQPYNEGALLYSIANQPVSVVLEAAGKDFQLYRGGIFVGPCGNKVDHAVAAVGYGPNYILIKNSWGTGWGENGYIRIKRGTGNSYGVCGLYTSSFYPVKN
The test can be described thus: enzyme inhibition kinetics (Ki, Morrison equation); turnover of 50 μM Z-Phe-Arg-AMC by 50 nM papain, 25°C, 20 mM MES pH 6.0 (legend of Figure 3: pH 6.5), 50 mM NaCl, 0.02% Tween 20, 2 mM DTT; inhibitor in 1:2 serial dilutions from 15-fold the enzyme concentration, quadruplicates.

In general, Ki refers to a measure of affinity in units of concentration, obtained from inhibition or displacement. Read a low Ki as higher affinity.

Where two headings read alike, the source gives them in different places.

Chain of Arabidopsis thaliana legumain isoform β, activated (AtLEGβ) (Arabidopsis thaliana) (Q39044 22-486): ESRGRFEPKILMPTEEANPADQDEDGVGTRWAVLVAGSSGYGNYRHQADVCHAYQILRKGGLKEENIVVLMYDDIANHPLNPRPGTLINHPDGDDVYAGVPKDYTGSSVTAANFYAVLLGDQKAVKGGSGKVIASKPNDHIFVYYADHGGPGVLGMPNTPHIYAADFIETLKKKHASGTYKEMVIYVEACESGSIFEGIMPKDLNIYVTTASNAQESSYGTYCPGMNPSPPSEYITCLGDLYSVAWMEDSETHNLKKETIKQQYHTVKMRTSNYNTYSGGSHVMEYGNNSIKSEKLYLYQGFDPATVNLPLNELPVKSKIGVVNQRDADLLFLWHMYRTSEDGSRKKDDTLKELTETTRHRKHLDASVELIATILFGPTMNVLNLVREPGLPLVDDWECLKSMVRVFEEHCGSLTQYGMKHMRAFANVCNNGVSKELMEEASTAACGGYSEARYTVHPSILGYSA
Chain of Arabidopsis thaliana legumain isoform γ, activated (AtLEGγ) (Arabidopsis thaliana) (Q39119 30-494): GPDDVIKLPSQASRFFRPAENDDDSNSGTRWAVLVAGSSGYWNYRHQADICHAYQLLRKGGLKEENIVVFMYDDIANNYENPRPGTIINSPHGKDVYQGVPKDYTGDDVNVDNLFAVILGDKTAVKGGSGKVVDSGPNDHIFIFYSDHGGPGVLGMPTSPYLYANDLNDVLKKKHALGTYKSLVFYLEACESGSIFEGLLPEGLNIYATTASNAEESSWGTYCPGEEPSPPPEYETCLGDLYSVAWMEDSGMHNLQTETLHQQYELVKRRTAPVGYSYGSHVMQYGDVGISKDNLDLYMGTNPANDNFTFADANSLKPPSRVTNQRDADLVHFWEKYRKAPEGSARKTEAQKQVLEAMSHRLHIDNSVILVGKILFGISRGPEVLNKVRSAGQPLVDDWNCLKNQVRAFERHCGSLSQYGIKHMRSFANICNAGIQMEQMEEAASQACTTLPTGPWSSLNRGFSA
Chain of human legumain, activated (hLEG) (human) (Q99538 18-323): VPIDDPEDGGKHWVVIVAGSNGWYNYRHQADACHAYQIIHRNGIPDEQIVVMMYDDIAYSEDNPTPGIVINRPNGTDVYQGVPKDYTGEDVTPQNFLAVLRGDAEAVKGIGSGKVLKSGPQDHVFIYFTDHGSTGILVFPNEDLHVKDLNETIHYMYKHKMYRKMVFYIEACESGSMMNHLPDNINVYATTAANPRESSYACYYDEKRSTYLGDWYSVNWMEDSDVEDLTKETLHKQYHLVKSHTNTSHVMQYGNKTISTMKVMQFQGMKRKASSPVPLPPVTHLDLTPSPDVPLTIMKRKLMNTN

On to AtCYT6-CTD-K208A (domain or fragment), for which the Ki in test [1] came to 3.98 nM.

For AtCYT6-CTD-R205A (domain or fragment), the inhibitory constant (Ki) in test [1] came out at 3.36 nM.

On to “C-terminal domain of AtCYT6 (AtCYT6-CTD, E142-D235) (domain or fragment)”, for which the values for the Ki in test [1], in test [2] and in test [3] were 0.61 nM, 0.86 nM and 61.4 nM, respectively. This molecule also returned an inflection temperature T i of AtLEGβ by nanoDSF at pH 6.5, equimolar AtCYT6-CTD (AtLEGβ alone 49.6°C) in test [4] of 57 °C.

Take “C-terminal domain of AtCYT6 carrying the interdomain linker (AtCYT6-CTDlong, A128-D235) (domain or fragment)”: the Ki in test [1] was found to be 0.68 nM.

“full-length AtCYT6 lacking the N-terminal signal peptide (AtCYT6-FL, A35-D235) (natural protein)”: the Ki in test [1] came to 0.29 nM; in test [2], 1.21 nM; in test [3], 106 nM; in test [5] it was 27.8 nM. Moreover, the inflection temperature T i of AtLEGβ by nanoDSF at pH 6.5, equimolar AtCYT6-FL (AtLEGβ alone 49.6°C) in test [4] worked out at 58.9 °C.

B1: N-terminal domain of AtCYT6 (AtCYT6-NTD, A35-D127) (domain or fragment, Arabidopsis thaliana, UniProt Q8H0X6-1 35-127, looked up)
chain: ALVGGVGDVPANQNSGEVESLARFAVDEHNKKENALLEFARVVKAKEQVVAGTLHHLTLEILEAGQKKLYEAKVWVKPWLNFKELQEFKPASD
notes: Arabidopsis thaliana cystatin 6, N-terminal cystatin domain, residues A35-D127; Cloned into pET-28; source: E. coli BL21(DE3), purified (Ni-NTA, SEC)
For B1, the Ki in test [5] (both partners purified) amounted to 6.3 ± 1.43 nM.

(Values after article PMC10952133, “Phytocystatin 6 is a context‐dependent, tight‐binding inhibitor of Arabidopsis thaliana legumain isoform β” (The Plant Journal, 2023).)
